Patent publication US20050019751A1

Molecular target: human SR-BI with 12 vector-derived amino acids added to the carboxyl terminal (pcDNA3-SR-BI construct of Example 3) (human) (UniProt Q8WTV0)
Experiment: FACS dot plot, BHK-21 cells transiently transfected with pcDNA3-SR-BI

UniProt Q8WTV0, sequence (Q8WTV0 other isoform, or with tags, fused parts or gaps limits assumed): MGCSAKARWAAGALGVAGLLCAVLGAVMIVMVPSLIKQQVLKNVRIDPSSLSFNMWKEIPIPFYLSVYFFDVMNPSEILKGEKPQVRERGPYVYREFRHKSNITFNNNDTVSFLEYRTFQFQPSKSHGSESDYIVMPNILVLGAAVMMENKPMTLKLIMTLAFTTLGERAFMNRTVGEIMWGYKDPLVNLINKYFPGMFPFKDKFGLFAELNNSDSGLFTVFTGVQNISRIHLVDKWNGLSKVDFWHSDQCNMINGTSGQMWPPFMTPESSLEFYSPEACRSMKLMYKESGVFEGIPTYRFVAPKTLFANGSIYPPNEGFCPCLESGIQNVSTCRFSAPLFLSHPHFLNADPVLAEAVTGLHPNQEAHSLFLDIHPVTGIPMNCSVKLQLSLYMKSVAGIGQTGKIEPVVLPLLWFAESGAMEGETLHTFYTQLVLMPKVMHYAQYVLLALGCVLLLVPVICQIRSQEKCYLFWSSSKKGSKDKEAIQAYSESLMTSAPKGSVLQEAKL

Substance: HCV E2 recombinant protein, genotype 1a (strain H), amino acids 384-661 of the HCV polyprotein with C-terminal 6 His tag (from UniProt P27958 384-661) (ligand)
- percent of transfected cells that bind E2: 10%
